Test [1] deals with T1, muCDH19(44-139)::huCDH19(142-364)::muCDH19(363-770) with Flag tag (construct E, Hu EC2-3) (human/mouse chimera).
T1 construct: leader left out; the entry starts at residue 44; also called C137847
As to the kind of experiment: flow cytometry, transfected 293T cells.
Description: (§1) The experiment included assaying the anti-CDH19 antibodies against mouse Cadherin19 to determine suitability for binning on these human/mouse chimeras.

Test [2] addresses huCDH19(44-772) with Flag tag (construct A, Hu EC1-5) (human, UniProt Q9H159 44-772). In words: flow cytometry, transfected 293T cells.
Description: as §1
Test [3] deals with T2, muCDH19(44-247)::huCDH19(250-364)::muCDH19(363-770) with Flag tag (construct F, Hu EC3) (human/mouse chimera).
T2 construct: leader left out; the entry starts at residue 44; also called C137911
As to the kind of experiment: flow cytometry, transfected 293T cells.
Description: as §1

Test [4] addresses T3, ckCDH19(1-43)::FLAG::ckCDH19(44-468)::huCDH19(464-772) (construct O, Hu EC5) (human/chicken chimera).
T3 construct: leader (1-43 of the entry) left out
T3 chain: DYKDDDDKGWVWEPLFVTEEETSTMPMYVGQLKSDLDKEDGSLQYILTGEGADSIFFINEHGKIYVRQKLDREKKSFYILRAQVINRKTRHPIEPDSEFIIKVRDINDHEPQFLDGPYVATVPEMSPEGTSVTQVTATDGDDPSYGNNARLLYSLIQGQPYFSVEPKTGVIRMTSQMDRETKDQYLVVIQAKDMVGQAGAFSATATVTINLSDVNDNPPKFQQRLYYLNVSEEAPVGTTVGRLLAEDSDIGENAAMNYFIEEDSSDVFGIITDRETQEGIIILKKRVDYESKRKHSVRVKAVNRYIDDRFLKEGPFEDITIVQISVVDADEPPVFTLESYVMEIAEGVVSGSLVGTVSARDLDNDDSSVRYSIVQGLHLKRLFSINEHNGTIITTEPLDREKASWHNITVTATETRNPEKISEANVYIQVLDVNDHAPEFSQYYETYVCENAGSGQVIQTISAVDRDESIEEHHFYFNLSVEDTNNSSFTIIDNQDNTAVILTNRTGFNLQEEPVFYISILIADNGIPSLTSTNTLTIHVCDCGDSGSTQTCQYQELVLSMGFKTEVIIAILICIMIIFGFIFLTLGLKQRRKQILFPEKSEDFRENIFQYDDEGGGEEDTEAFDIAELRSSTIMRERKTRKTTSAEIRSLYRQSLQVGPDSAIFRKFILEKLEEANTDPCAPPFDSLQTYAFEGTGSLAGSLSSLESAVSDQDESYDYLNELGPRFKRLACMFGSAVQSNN
In words: flow cytometry, transfected 293T cells, 2 mM CaCl2.
Protocol: (§2) The experiment included assaying a subset of anti-CDH19 antibodies against chicken Cadherin19 to determine suitability for binning on these human/chicken chimeras.
(§3) The following binding assay was completed in presence of 2 mM CaCl₂). […] Cells were then washed one time and the amount of cell associated Alexa647-labelled Ab was quantitated by flow cytometry. The experiments included mock transfected controls.

In test [5] the target is T4, huCDH19(1-43)::FLAG::hu(44-141)::ckCDH19(142-776) (construct K, Hu EC1) (human/chicken chimera).
T4 construct: leader (1-43 of the entry) left out; also called huCDH19(44-141)::ckCDH19(142-776)
As to the kind of experiment: flow cytometry, transfected 293T cells, 2 mM CaCl2.
Protocol: as §2, §3

Test [6] addresses T5, ckCDH19(1-43)::FLAG::ckCDH19(44-141)::huCDH19(142-249)::ckCDH19(250-776) (construct L, Hu EC2) (human/chicken chimera).
T5 construct: leader (1-43 of the entry) left out
T5 chain: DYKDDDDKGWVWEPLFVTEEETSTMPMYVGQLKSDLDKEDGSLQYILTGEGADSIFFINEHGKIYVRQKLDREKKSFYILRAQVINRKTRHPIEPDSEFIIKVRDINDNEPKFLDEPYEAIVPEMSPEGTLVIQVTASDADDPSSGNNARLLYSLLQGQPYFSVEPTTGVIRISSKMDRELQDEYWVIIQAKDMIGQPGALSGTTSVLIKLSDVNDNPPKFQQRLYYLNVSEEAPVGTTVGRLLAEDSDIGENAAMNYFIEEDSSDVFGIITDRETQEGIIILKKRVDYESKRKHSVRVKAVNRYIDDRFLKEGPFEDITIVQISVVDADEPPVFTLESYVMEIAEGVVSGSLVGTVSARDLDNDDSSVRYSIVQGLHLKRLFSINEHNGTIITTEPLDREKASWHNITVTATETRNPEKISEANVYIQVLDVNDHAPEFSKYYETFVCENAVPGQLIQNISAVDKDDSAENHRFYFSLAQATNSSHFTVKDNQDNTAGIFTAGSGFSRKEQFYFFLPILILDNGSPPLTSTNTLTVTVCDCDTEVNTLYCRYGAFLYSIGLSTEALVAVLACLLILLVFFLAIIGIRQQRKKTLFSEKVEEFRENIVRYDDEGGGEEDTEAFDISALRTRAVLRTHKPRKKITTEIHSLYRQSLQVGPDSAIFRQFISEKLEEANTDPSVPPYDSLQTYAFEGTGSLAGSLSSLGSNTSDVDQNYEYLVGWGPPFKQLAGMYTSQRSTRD
As to the kind of experiment: flow cytometry, transfected 293T cells, 2 mM CaCl2.
Protocol: as §2, §3

In test [7] the target is T6, ckCDH19(1-43)::FLAG::ckCDH19(44-776) (construct J, Ck EC1-5) (chicken).
T6 construct: the entry holds leader (1-43), FLAG and ckCDH19(44-776); leader left out; also called chicken Cadherin19
T6 chain: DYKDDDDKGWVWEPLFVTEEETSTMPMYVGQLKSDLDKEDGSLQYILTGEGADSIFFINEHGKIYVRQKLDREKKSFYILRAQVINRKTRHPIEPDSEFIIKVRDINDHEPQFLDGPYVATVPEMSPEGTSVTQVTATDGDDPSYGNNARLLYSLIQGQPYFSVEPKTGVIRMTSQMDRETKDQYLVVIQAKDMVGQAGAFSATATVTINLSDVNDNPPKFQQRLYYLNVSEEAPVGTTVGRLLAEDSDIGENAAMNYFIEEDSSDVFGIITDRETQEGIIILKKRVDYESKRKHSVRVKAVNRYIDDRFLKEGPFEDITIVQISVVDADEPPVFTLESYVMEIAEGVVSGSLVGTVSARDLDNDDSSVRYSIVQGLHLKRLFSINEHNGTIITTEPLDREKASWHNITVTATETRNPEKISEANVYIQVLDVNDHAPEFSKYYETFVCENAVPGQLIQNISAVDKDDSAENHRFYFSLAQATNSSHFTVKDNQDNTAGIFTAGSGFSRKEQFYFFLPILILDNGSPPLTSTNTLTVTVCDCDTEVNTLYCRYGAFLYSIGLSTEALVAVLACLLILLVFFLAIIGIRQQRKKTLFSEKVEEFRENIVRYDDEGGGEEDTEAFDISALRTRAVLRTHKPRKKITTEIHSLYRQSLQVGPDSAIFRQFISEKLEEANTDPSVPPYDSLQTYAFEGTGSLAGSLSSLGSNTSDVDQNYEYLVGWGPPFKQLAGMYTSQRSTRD
As to the kind of experiment: flow cytometry, transfected 293T cells, 2 mM CaCl2.
Protocol: as §2, §3

Test [8] addresses T7, muCDH19(44-770) with Flag tag (construct I, Mu EC1-5) (mouse).
T7 construct: leader left out; the entry starts at residue 44; also called Mo EC1-5; mouse Cadherin19
T7 chain: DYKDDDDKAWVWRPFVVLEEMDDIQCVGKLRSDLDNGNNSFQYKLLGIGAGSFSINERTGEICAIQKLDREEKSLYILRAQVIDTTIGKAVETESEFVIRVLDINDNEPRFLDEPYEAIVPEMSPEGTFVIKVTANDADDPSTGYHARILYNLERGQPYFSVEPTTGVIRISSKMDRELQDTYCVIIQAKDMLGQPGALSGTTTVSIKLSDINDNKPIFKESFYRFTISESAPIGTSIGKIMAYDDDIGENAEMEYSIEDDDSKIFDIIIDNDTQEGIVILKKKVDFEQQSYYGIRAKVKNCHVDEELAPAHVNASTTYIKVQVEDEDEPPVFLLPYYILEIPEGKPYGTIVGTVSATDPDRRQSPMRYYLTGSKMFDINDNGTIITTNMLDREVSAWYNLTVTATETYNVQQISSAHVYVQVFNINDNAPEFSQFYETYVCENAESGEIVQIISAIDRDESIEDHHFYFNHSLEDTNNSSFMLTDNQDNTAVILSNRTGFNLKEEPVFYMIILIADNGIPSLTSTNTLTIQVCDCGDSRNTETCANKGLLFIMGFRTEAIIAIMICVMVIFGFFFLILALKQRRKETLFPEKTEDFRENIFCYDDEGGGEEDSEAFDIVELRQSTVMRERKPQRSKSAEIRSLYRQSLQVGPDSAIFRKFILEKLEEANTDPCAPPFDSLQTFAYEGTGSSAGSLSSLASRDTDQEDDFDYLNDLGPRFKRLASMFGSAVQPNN
As to the kind of experiment: flow cytometry, transfected 293T cells, 2 mM CaCl2.
Protocol: as §3

B1: hu anti-<huCDH19> 4B10 (1-471)(R17G) VH::huIgG1z + 4B10 (1-236)(H45Q,A90T) VL::huKLC (Ab ID 14054) (antibody, V domains shown)
VH: QVQLVESGGGVVQPGGSLRLSCAASGFTFSSYDMHWVRQAPGKGLEWVAVISYDGTNEYYADSVKGRFTISRDTSKNTLYLQMNSLRAEDTAVYYCARERYFDWSFDYWGQGTLVSVSS
VL: EIVLTQSPGTLSLSPGERATLSCRASQSVSNTYLAWYQQRPGQAPRLLIYGASSRATGIPDRFSGSGSGTDFTLTISSLEPEDFAVYYCQQYSNSWTFGQGTKVEIKR
notes: Engineered variant of 4B10; the entries already carry the changes; Bin 4
Consider B1, for which the binding result in test [1], in test [2] and in test [3] was “binds” each time.

B2: hu anti-<huCDH19> 17H8.2 (Ab ID 13874) (antibody, human IgG1, kappa, V domains shown)
VH: QVQLQESGPGLVKPSETLSLTCTVSGGSINSYYWSWIRQPPGKGLEWIGYIYYIGSTNYNPSLKSRVTISVDTSKNQFSLKLSSVTAADTALYYCARDSRYRSGWYDAFDIWGQGTMVTVSS
VL: DIVLTQSPGTLSLSPGERATLSCRASQSVAGSYLAWYQQKPGQAPRLLISGASSRATGIPDRFSGSGSGTDFTLTISRLEPEDFAVYYCQQYGKSPITFGQGTRLEMKG
notes: huIgG1z / huKLC; Bin 3; also called 23B6; 28D10
For the molecule B2, the binding result in test [4] is given as “no binding (tested: 5 ug/ml)”; in test [5] it was “binds”; in test [6], “no binding (tested: 5 ug/ml)”; in test [7] it was “no binding (tested: 5 ug/ml)”.

B3: hu anti-<huCDH19> 26F12.1 (Ab ID 13881) (antibody, human IgG1, lambda, V domains shown)
VH: QVQLVQSGAEVKKPGASVKVSCKASRYTFTNYYMSWVRQAPGQGLEWMGIINPSGGDSTYAQKFQGRLTMTGDTSTSTVYMELSSLRSEDTAVYYCARGGIQLWLHFDYWGQGTLVTVSS
VL: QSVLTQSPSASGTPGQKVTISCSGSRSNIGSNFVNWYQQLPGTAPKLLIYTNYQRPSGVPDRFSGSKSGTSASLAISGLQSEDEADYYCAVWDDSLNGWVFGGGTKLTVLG
notes: huIgG1z / huLLC-C2; Bin 2; also called 27B3
Regarding B3, the binding result in test [4] is “no binding (tested: 5 ug/ml)”; in test [5], “binds”; in test [6], “no binding (tested: 5 ug/ml)”; in test [7] it was “no binding (tested: 5 ug/ml)”; in test [8], “no binding (tested: 5 ug/ml)”.

B4: hu anti-<huCDH19> 4A2 (1-472)(Q17E,H47P) VH::huIgG1z + 4A2 (1-236)(N30Q,T102A) VL::huKLC (Ab ID 14026) (antibody, V domains shown)
VH: QVQLQESGPGLVKPSETLSLTCTVSGGSISSSGYYWSWIRQPPGKGLEWIGYIYYTGSAYYNPSLKSRVTISVDTSKNQFSLKLSSVTAADTAVYYCARDGSSGWYFQYWGQGTLVTVSS
VL: EIVLTQSPGTLSLSPGERATLSCRASRQISSSYLAWYQQKPGQAPRLLIYGPSSRATGIPDRFSGSGSGTDFTLTISRLEPEDFAVYYCQQYGSSFTFGPGTKVDIKR
notes: Engineered variant of 4A2; the entries already carry the changes; Bin 4
B4: the binding result in test [1], in test [2] and in test [3] was “binds” throughout.

The values above are taken from patent US20220127354A1 (Amgen, published 2022).
